The data set in a line: soluble on expression in E. coli; label from the status in PepcDB or PDB records.
“MTKIMIIGANGGIAKKLTQRLLAETDDELVLFLRRAERLAQYREQPRVTLIDGNVLDTDELATAMAPVDIVYSNVGGTDLAAQTKSILAAMARTQRQRLIFISALGAHHEVPGKFGAWNEQAIADFLPGFREAARLLSASELVYTEIRPAWLTDVAEIDYELTTGAEPFKGTEVSRASVADLVFKLMAHPENYQRVSLGVDEPGTAGDRPSWLLEHHHHHH”: the “soluble on expression in E. coli” value is on record as “not soluble”.

Regarding “GMGRILREGAGWRLGWDETAHRYPGLVGTTDWAVELTAAEMADFCRLVQQLAETIAAIAPELMPEERLQIEAESALLWLEAEGFADAYELRLILASDRRVEACWPAAAVPALVAATHTLKGF”, the “soluble on expression in E. coli” value is “soluble”.

As to “MLLRFIIGLSSVLLVTGLFNPLLPTLGDYLLTDQQVQKYFSVAGPSNLAIGTCNSVPFASAQAGFASSVGLAPTTTWREANILTNATIGMIDQGMDQLAAVCQARQQFVQTLGAAYDTCTDRFYLISLGNTDWWNVMQYTHLMKHLEFICSTGFDVYQSNIDCIRKGETTDGNQYRACFYKFNATVNANPNNFCGATETFIGCIKDFFDTECNLYVGWMQCELERIGFAYDCYGLSC”, the “soluble on expression in E. coli” value is recorded as “not soluble”.

Take “MIELKEVVKEYRTKNKEVLAVDHVNLSIRAGSIYGVIGFSGAGKSTLIRMFNHLEAPTSGEVIIDGDHIGQLSKNGLRAKRQKVNMIFQHFNLLWSRTVLKNIMFPLEIAGVPRRRAKQKALELVELVGLKGREKAYPSELSGGQKQRVGIARALANDPTVLLCDEATSALDPQTTDEILDLLLKIREQQNLTIVLITHEMHVIRRICDEVAVMESGKVIEHGPVTQVFENPQHTVTKRFVKEDLNDDFETSLTELEPLEKDAYIVRLVFAGSTTTEPIVSSLSTAYDIKINILEANIKNTKNGTVGFLVLHIPYISSVDFGKFEKELIERQVKMEVLRHG”: the “soluble on expression in E. coli” value was “not soluble”.

Turning to “MGSDKIHHHHHHMNYFSYLSLEERQNFFYKEPLSFSKNIEKEQLAYALGATLYTPGTKETIAEDIIRKKHVEATSIIFCLEDSISDKEVKFAEQNIVFQIQQISNLVSDNILNQADIPLLFIRVRQPSQMRTIVTELGSAVHCLCGFVFPKFTPVNGKSYIDQLAYINKLYSLSLYGMPILESPEIMYRETRVKSLLQIKDLLDSYRDYILNVRIGATDFSSIFGIRRNKHTPIYHITVVRDCISDIINIFSRATNGYVISGCVWEYFSNDYEEGLIQEVSLDHANGLIGKTVIHPSHIKVVQAMHIVTMEDYLDARSILQHANTYNGVLKSSFANKMNEVKPHYNWARKTILKSNIYGVLHENKQFTDLLITNAKQHV”, the “soluble on expression in E. coli” value was “not soluble”.

For “MAHHHHHHMNKDTICAWCFDVLKYELKNEKFDKVPPLIQSLHNDGFKIPFFVKWMKLNDVKDMGSYNYDAYELNGCIGCLGETDIMELRYYALESSLNDTRFYPITLKDFPFLIVTITYLFNFEKCAHVYDWVIGKHGIKISFVANKRRYSSTFLPEVASQHNFDHQTTVKKLIRKANYRGEINDELLENIEVERYEGVSCSLTHVDYERV”, the “soluble on expression in E. coli” value was “not soluble”.

With “MTAPRYPRDMIGYGATPPNANWPGNARIAVQIVLNYEEGGENNILHGDAASEAFLSEIVGAAPWPGQRHWNMETIYEYGARAGFWRLHRLMRDLPVTVYGVATALARSPDQVAAMKSAGWEIASHGLKWVEHKDMPEEEERAQIAEAIRLHTEVTGSRPRGWYTGRCSMNTVRLASEAGIDYIADTYDDDLPYWKRIDGRDQLIVPYTLDCNDMRFATPQGFNSGDQFFAYLKDSFDALYAEGGEGAPKMLSIGLHCRLIGRPGRVMALKRFLDYARGHEDVWFATRLQIAEHWVREHPPVARTRPSEMPKADFVAAYGGIFEHSPWIAERAHGLELGPAHDTAGGLHNALCRMFRSASAEERLGVLTAHPDLAGKLAQAKRLTAESTSEQASAGLDALTDEERTTFTRLNTEYVARFGFPFIIAVRDHDKASILAAFQRRIGNDRETEFAEACRQVERIAEFRLRDVLPSLEHHHHHH”, the “soluble on expression in E. coli” value is listed as “soluble”.

On to “SSAAQPGVAFSVDNTIKRPNPAPGTRKKSSNAEVIKELNKCREENSMRLDLSKRSIHILPSSIKELTQLTELYLYSNKLQSLPAEVGCLVNLMTLALSENSLTSLPDSLDNLKKLRMLDLRHNKLREIPSVVYRLDSLTTLYLRFNRITTVEKDIKNLSKLSMLSIRENKIKQLPAEIGELCNLITLDVAHNQLEHLPKEIGNCTQITNLDLQHNELLDLPDTIGN”, for which the “soluble on expression in E. coli” value is recorded as “soluble”.

As for “MPINGIKIKNSSGEEVYVLKEKGSVVNFGREKKVCHITFDPHAARVSRIHASIEWGDEGLFFTDKSKEGTEINGTRLKQSSQELHEGVYQLAIGGISMTLEVDGDELEETVIDSPQPDESSTVPETVYEESRYSNSSIKEMPAVEVTDDE”, the “soluble on expression in E. coli” value is “not soluble”.

Consider “MSLSVAIIGPGAVGTTIAYELQQSLPHTTLIGRHAKTITYYTVPHAPAQDIVVKGYEDVTNTFDVIIIAVKTHQLDAVIPHLTYLAHEDTLIILAQNGYGQLEHIPFKNVCQAVVYISGQKKGDVVTHFRDYQLRIQDNALTRQFRDLVQDSQIDIVLEANIQQAIWYKLLVNLGINSITALGRQTVAIMHNPEIRILCRQLLLDGCRVAQAEGLNFSEQTVDTIMTIYQGYPDEMGTSMYYDIVHQQPLEVEAIQGFIYRRAREHNLDTPYLDTIYSFLRAYQQNEGHHHHHH”, for which the “soluble on expression in E. coli” value was “soluble”.

Turning to “MLTHQFNPYSACTSILVGKNASADGSTMIGRNEDSRAAWAKKMIIHAHREFEEPQTFKSQDQTHPFTMTLPKIRAKYTATPEWTAEYGLFEEDGINEYGVAMSATESAYCNTRVLAADPYVKDGIGEEAMVTVTLPYIHSAREGVERLGHIIEEHGTYETNGILFSDVNEVWYMETGAGHYWVAQRIPDDAYAVVANQLAIQEIDFSDHDNYLYAKDIRNFVLDNQLASMDNGLNFREVFGTADLSDRYYNTPRVWYGQRCFTPSVTQTPESFDLPFIQRADGLIHIDQVQGYLASHYQGTPFDPVGQGTATEKHQYRPISLAKTQESHVLQLRPDLPVTLSGIHWLAMGVAAESVYVPFYAGATTTPAAYQVATEKYDATSAYWIFKHVGILVDAHYHELHGELQTVQKELAIQLGHHIIVTDQQVAALTGDELAMALTKANQKAVDQALNTMQALAADLITKSTDMSPLNYDTDLNLLEHHHHHH”, the “soluble on expression in E. coli” value was “not soluble”.

For the sequence “METIKIGVVGLGTVGTGVVKMLQAHQEKISEITGRKLELACVVVHNLKKHEQVDLGDVQMTDQIATLLDDPSIQIMVEVMGSIHPAKEYITQALQAGKHVVTANKDLIAQYGRELVQIARENHRDLFYEASVAGGIPILRTIDNSFAADRIQRVMGIVNGTTNYIMTQM”, the “soluble on expression in E. coli” value was “not soluble”.

As to “MWQNFYLTTLKLSQYTQEEKPILPADNMDPRALASVHAWEHGDFMCKGYIQSRLSDPLYNVYSNVETSNELWDSLDKKYQTKDAGSQKYAAAKFLDYKMVDSRPMMVQVEELTCLFHDI”, the “soluble on expression in E. coli” value is “soluble”.

For “MAQRFTDEVAIVTGSSNGIGRATAILLASEGAKVTITGRNAERLEESRQALLKVGVPSGHINSVVADVTTGAGQDVLIDSTLKKFGKINILINNAGALIVDPEGKTNTSTGVETCLKTFQLNFQSVVEMTQKIRPHLANTHGEIVNVSSVGAGPAAENRFPYYSAAKAALDQYSRNTAIDLIPDGIRVNIVQPGFVATGFTTAASGMSPDASAKMYEGIGANTSCIPAGYCGRPEHLASVIAFLADRKASEYIVGQTIIADGGTTLVRGRNVALATRRAE”, the “soluble on expression in E. coli” value is on record as “not soluble”.

“MVHPALEFSDCYSDSPDFRERLKCYENELEKTNKFLKDVIKDGNNVINTFKEYSLAVQKFSQTLQSFQFDFIGDTLTDDEMNIAESFREFAGLLQDVEEARMMLVQNASDLLIKPLEKFRKEQIGVTKERRKKFEKESEKYYSQLDKHVNLSSKKKETQLQEADEQLDKERQAFYESSVEYVYQIQQVQEKKKFDVVEPVLAFLQSILTLNNLTVEMYTFRNKGTKCNTGEIPFQKVQFCTIQVDISTFMVHFCTFKLYFCTFKIP”: the “soluble on expression in E. coli” value is listed as “not soluble”.
